Patent US6194559

Key:
[1] = system: ABF1 (Arabidopsis thaliana); experiment: cell_activity; conditions: yeast lacZ; no activity without ABRE
[2] = system: ABF2 (Arabidopsis thaliana); experiment: cell_activity; conditions: yeast lacZ

## Em1a trimer reporter
[1]
  activity (fold over control): 6
[2]
  activity (fold over background): 2
